First the molecules themselves.
B1: unmodified H3 10mer effector peptide (H3 Ala1-Ser10) [not stated] / GST-PHD1 (S287-K347) of KDM5A [human] (parent)
chain 1: ARTKQTARKS
chain 2: SVNFVDLYVCMFCGRGNNEDKLLLCDGCDDSYHTFCLIPPLPDVPKGDWRCPKCVAEECSK

In article PMC6327041, “Histone H3 binding to the PHD1 domain of histone demethylase KDM5A enables active site remodeling” (Nature Communications, 2019) one finds Kd data, which are given here for one variant.

The assay covers variants of B1. Nature of the assay: competition-based fluorescence polarization assay. The conditions noted are these: with GST-PHD1 (S287-K347) of KDM5A [human].
In the case of chain 1 R2A, the Kd was found to be 205 µM.
